Laboratory results taken from article doi:10.1101/2021.04.16.440242.

Biological target: T1, wild-type CHIP (carboxyl terminus of Hsc70-interacting protein) (human), Q9UNE7
T1 chain: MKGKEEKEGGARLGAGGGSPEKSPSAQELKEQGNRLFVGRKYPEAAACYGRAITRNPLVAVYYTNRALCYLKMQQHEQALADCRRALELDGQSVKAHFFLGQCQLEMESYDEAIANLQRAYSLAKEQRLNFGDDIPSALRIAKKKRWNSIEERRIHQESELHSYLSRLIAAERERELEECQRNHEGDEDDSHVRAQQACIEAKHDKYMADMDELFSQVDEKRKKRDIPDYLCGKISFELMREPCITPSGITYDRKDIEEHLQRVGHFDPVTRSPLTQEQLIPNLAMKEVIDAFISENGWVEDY
Assay: SEC
Details: remark: other sources report otherwise

stoichiometry N: 2
B1: wild-type CHIP (carboxyl terminus of Hsc70-interacting protein), Q9UNE7 1-303 (enzyme)
chain: T1 chain
